Laboratory results from PMC3382604.

How the values were obtained:
[1] = target: Dihydrodipicolinate synthase from Vitis vinifera (Vitis vinifera); assay: crystal structure; Vv-DHDPS in complex with pyruvate, 2.2 Å, space group P1, eight monomers (two tetramers) in the asymmetric unit
[2] = target: Dihydrodipicolinate synthase from Vitis vinifera (Vitis vinifera); assay: AUC; sedimentation velocity, 13 µM initial protein, 40,000 rpm, 30°C, absorbance at 280 nm, 2DSA Monte Carlo analysis; without and with saturating (5 mM) pyruvate
[3] = target: Dihydrodipicolinate synthase from Vitis vinifera (Vitis vinifera); assay: SAXS
[4] = target: Dihydrodipicolinate synthase from Bacillus anthracis (Bacillus anthracis); assay: AUC
[5] = target: Dihydrodipicolinate synthase from Bacillus anthracis (Bacillus anthracis); assay: SAXS

stoichiometry N [1] | stoichiometry N [2] | stoichiometry N [3] | Substance | stoichiometry N [4] | stoichiometry N [5]
4 | 4 | 4 | Dihydrodipicolinate synthase from Vitis vinifera (enzyme) | – | –
– | – | – | Dihydrodipicolinate synthase from Bacillus anthracis (enzyme) | 4 | 4
